Reference: patent publication US20200262877A1, “ION CHANNEL-BINDING PEPTIDES AND METHODS OF USE THEREOF” (priority 2017, published 2020)

Experiments:
5HT3a = target: T1, 5HT3a (Homo sapiens, UniProt P46098); experiment: Ion channel panel (IonWorks Barracuda): 5HT3a; format: cell-based
T1 construct: host or cells: HEK293 or CHO
T1 sequence (P46098 whole entry, looked up): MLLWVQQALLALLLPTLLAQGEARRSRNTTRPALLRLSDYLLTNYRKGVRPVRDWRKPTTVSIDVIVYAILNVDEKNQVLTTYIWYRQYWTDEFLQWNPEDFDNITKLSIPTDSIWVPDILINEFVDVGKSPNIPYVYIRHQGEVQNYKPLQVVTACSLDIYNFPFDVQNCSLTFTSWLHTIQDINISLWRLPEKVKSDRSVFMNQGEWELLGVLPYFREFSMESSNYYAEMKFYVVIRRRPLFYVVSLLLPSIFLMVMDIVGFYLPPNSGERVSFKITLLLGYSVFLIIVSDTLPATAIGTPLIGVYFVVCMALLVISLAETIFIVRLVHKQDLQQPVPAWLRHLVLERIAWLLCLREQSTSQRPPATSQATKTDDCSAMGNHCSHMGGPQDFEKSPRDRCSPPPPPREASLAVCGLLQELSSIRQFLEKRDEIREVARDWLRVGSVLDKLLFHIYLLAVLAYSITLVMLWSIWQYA
In short: (§1)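 Peptides were tested in duplicate at final 20 μM and 200 nM, with concentration set by amino acid analysis, in HEPES-buffered saline. They were applied for at least 5 min to HEK293 or CHO cells transfected with each channel. Currents were expressed as % inhibition, 1-(Ipeptide/Icontrol)×100, or % activation, Ipeptide/Icontrol×100, against a channel-matched reference compound.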

α3β4 = target: T2, α3β4 (Homo sapiens, UniProt P30926+P32297); experiment: Ion channel panel (IonWorks Barracuda): α3β4; format: cell-based; conditions: 100% = no change, <100% = inhibition
T2 construct: host or cells: HEK293 or CHO
In short: as §1

α4β2 = target: T3, α4β2 (Homo sapiens, UniProt P17787+P43681); experiment: Ion channel panel (IonWorks Barracuda): α4β2; format: cell-based; conditions: 100% = no change, <100% = inhibition
T3 construct: host or cells: HEK293 or CHO
In short: as §1

Cav2.1 = target: T4, Cav2.1 (Homo sapiens, UniProt O00555); experiment: cell-based; conditions: 100% = no change, <100% = inhibition
T4 construct: host or cells: HEK293 or CHO
In short: as §1

Cav2.2 = target: T5, Cav2.2 (Homo sapiens, UniProt Q00975); experiment: cell-based; conditions: 100% = no change, <100% = inhibition
T5 construct: host or cells: HEK293 or CHO
In short: as §1

Kv2.1 = target: T6, Kv2.1 (Homo sapiens, UniProt Q14721); experiment: cell-based; conditions: 100% = no change, <100% = inhibition
T6 construct: host or cells: HEK293 or CHO
In short: as §1

GABA = experiment: Ion channel panel (IonWorks Barracuda): GABA; format: cell-based; conditions: 100% = no change, <100% = inhibition
In short: as §1

Nav1.5 = Nav1.5 (Homo sapiens, UniProt Q14524); experiment: in vitro; conditions: 100% = no change; for Activity of Nav1.5 with peptide, expressed as a percentage of the reference compound: peptide at 0.2 μM; for Activity of Nav1.5 with peptide (percentage of the reference compound): peptide at 20 μM
Nav1.5, sequence (Q14524 whole entry): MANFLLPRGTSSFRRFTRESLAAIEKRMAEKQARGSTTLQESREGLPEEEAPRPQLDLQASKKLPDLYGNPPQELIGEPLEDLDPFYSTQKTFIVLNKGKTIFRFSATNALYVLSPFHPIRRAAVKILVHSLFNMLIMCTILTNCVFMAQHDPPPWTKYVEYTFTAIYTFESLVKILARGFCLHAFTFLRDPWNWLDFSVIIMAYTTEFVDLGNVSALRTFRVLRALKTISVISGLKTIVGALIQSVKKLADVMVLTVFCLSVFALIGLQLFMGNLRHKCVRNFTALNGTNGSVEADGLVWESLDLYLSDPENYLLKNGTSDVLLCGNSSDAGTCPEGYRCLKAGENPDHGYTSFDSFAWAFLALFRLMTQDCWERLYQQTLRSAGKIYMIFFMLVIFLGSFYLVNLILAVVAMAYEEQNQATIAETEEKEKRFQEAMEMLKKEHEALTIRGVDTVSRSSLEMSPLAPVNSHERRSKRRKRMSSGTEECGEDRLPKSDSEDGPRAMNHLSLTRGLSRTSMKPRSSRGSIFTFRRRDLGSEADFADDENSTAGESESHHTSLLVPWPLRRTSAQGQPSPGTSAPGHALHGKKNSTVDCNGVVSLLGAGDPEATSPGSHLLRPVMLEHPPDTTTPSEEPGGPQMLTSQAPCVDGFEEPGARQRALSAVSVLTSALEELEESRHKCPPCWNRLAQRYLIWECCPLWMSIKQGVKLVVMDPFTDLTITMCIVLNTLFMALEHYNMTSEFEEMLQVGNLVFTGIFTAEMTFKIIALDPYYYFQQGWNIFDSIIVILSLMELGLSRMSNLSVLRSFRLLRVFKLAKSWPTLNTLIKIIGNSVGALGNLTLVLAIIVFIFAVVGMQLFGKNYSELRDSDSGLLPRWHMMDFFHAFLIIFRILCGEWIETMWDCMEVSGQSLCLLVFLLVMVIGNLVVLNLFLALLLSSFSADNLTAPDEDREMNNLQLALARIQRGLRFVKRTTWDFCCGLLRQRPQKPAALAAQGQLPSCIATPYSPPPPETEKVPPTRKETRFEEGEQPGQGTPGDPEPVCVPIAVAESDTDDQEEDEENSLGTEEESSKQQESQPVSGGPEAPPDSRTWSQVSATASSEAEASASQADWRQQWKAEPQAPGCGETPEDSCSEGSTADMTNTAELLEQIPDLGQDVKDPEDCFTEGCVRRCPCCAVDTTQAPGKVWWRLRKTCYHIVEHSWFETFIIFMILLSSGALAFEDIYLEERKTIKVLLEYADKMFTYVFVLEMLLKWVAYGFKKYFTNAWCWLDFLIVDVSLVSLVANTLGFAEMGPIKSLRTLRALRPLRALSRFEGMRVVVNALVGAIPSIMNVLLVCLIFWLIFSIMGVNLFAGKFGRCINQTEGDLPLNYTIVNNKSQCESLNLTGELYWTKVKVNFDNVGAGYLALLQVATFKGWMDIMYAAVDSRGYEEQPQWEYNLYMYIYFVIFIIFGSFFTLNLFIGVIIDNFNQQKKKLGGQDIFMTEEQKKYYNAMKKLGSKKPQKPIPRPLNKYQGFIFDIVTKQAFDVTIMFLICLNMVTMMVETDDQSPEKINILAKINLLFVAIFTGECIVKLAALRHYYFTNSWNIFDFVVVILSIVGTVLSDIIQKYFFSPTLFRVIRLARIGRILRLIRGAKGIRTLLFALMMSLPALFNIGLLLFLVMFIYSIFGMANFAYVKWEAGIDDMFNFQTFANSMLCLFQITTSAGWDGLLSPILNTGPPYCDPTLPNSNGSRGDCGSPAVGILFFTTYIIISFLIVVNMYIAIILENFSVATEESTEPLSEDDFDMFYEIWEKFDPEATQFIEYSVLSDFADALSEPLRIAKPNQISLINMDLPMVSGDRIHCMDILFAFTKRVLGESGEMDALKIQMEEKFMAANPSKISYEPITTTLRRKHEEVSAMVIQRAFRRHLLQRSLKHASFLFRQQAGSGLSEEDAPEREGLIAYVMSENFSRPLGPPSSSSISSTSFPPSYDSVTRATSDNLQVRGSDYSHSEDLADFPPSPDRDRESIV
In short: as §1

hERG = hERG (Homo sapiens, UniProt Q12809); experiment: in vitro; conditions: 100% = no change, <100% = inhibition
In short: as §1

Kir2.1 = target: T7, Kir2.1 (Homo sapiens, UniProt P63252); experiment: Ion channel panel (IonWorks Barracuda): Kir2.1; format: cell-based; conditions: 100% = no change, <100% = inhibition
T7 construct: host or cells: HEK293 or CHO
T7 sequence (P63252 whole entry): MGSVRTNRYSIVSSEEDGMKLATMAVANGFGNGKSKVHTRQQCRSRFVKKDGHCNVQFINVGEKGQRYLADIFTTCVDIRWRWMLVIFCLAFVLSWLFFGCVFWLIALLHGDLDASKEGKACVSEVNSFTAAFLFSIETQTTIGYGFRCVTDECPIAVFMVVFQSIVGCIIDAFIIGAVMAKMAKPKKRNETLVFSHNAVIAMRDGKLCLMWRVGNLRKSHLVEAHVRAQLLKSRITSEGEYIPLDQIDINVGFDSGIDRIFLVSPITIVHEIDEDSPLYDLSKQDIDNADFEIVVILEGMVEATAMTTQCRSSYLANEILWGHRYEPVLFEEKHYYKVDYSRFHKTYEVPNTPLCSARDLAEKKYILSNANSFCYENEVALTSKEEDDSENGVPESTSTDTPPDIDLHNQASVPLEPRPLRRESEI
In short: as §1

Kv1.1 = target: T8, Kv1.1 (Homo sapiens, UniProt Q09470); experiment: cell-based; format: cell-based; conditions: 100% = no change, <100% = inhibition
T8 construct: host or cells: HEK293 or CHO
In short: as §1

Kv1.2 = target: T9, Kv1.2 (Homo sapiens, UniProt P16389); experiment: cell-based; format: cell-based; conditions: 100% = no change, <100% = inhibition
T9 construct: host or cells: HEK293 or CHO
In short: as §1

Kv1.3 = target: T10, Kv1.3 (Homo sapiens, UniProt P22001); experiment: cell-based; format: cell-based; conditions: 100% = no change, <100% = inhibition
T10 construct: host or cells: HEK293 or CHO
T10 sequence (P22001 whole entry): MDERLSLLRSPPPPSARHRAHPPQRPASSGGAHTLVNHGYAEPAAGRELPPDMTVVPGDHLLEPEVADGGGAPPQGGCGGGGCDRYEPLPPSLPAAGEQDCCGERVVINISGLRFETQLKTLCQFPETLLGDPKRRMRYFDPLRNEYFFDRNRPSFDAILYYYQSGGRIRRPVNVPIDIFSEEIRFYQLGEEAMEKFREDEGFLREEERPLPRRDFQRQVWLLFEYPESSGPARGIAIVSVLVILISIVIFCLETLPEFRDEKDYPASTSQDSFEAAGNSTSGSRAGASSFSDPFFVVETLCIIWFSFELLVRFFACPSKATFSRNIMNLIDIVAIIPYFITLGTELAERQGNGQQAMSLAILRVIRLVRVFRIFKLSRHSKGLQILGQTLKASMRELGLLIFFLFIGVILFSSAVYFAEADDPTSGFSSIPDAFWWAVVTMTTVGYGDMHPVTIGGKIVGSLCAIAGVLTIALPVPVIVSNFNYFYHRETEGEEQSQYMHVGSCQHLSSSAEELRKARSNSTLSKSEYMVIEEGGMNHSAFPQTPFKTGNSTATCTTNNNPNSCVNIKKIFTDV
In short: as §1

Nav1.7 = target: T11, Nav1.7 (Homo sapiens, UniProt Q15858); experiment: cell-based; format: cell-based; conditions: 100% = no change; for Activity of Nav1.7 with peptide, expressed as a percentage of the reference compound: peptide at 0.2 μM; for Activity of Nav1.7 with peptide (percentage of the reference compound): peptide at 20 μM
T11 construct: host or cells: HEK293 or CHO
T11 sequence (Q15858 whole entry): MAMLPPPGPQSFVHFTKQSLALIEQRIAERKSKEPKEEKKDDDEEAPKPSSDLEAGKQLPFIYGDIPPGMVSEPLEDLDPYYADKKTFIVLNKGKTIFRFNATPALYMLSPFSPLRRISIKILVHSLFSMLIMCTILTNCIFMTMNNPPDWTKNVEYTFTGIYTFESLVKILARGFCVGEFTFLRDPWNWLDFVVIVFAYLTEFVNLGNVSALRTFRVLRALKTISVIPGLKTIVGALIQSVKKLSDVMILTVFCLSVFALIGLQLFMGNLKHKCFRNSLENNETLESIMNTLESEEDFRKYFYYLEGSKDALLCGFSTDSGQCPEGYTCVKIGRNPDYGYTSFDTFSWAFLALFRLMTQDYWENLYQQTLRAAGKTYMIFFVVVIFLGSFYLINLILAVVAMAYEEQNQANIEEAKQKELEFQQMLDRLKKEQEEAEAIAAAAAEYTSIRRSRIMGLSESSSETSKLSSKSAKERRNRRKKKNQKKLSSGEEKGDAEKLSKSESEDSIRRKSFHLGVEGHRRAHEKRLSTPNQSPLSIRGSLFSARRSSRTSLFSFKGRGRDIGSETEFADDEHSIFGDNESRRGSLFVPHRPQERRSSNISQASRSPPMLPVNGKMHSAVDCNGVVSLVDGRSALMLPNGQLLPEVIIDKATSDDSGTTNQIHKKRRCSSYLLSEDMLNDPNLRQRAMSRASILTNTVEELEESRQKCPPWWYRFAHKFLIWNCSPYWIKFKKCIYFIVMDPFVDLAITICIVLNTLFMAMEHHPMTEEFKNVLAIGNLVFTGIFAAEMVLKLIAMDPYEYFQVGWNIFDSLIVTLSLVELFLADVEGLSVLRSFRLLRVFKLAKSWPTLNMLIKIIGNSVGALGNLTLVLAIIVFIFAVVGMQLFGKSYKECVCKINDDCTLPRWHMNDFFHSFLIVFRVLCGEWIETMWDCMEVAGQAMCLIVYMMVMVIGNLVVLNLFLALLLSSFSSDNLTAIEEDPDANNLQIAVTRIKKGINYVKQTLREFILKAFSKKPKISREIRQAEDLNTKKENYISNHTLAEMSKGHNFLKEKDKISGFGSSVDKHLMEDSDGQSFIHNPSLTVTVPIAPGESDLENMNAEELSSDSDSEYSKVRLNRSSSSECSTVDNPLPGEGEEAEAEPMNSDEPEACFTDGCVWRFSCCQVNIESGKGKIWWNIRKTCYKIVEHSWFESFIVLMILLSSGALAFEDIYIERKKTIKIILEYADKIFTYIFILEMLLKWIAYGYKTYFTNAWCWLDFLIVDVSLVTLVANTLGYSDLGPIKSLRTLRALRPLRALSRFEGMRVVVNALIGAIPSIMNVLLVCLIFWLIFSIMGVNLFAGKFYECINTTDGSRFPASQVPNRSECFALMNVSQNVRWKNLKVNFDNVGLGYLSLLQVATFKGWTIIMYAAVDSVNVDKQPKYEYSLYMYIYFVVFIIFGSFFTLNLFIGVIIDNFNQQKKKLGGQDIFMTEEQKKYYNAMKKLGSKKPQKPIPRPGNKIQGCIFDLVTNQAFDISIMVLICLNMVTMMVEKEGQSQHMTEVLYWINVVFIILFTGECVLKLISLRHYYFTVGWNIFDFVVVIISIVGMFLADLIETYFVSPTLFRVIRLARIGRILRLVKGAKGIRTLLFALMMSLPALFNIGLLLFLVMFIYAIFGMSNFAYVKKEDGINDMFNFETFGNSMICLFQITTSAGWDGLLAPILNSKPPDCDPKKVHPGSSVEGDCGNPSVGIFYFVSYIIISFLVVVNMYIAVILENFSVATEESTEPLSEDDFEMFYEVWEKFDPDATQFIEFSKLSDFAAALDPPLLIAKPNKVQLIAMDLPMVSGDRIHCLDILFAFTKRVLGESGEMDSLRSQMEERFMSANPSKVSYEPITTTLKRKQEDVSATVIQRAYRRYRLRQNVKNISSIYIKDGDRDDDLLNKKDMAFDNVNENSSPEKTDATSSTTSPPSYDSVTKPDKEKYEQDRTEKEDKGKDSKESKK

NR2A = target: T12, NR2A (Homo sapiens, UniProt Q12879); experiment: Ion channel panel (IonWorks Barracuda): NR2A; format: cell-based; conditions: 100% = no change, <100% = inhibition
T12 construct: host or cells: HEK293 or CHO
In short: as §1

NR2B = target: T13, NR2B (Homo sapiens, UniProt Q13224); experiment: Ion channel panel (IonWorks Barracuda): NR2B; format: cell-based; conditions: 100% = no change, <100% = inhibition
T13 construct: host or cells: HEK293 or CHO
In short: as §1

TRPA1 = target: T14, TRPA1 (Homo sapiens, UniProt O75762); experiment: Ion channel panel (IonWorks Barracuda): TRPA1; format: cell-based; conditions: 100% = no change, <100% = inhibition
T14 construct: host or cells: HEK293 or CHO
In short: as §1

TRPV1 = target: T15, TRPV1 (Homo sapiens, UniProt Q8NER1); experiment: Ion channel panel (IonWorks Barracuda): TRPV1; format: cell-based; conditions: 100% = no change, <100% = inhibition
T15 construct: host or cells: HEK293 or CHO
In short: as §1

[1] = first of two Nav1.5 columns (probably TP1)
[2] = second of two Nav1.5 columns (probably TP2)
[3] = first of two Nav1.7 columns (probably TP1)
[4] = second of two Nav1.7 columns (probably TP2)

Q: How did the “Activity of 5HT3a with peptide (percentage of the reference compound)” value (5HT3a) turn out when “4 (GSSCAKPRENCNRMNILCCRGECVCPTFGDCFCYGD) [compound 4]” was run?
A: 76%

Q: And the “Activity of 5HT3a with peptide, expressed as a percentage of the reference compound” value (5HT3a)?
A: 103%

Q: And the “Activity of a3b4 with peptide, expressed as a percentage of the reference compound” value (α3β4; peptide at 0.2 μM)?
A: 107%

Q: And the “Activity of a3b4 with peptide (percentage of the reference compound)” value (α3β4; peptide at 20 μM)?
A: 97%

Q: What about the “Activity of a4b2 with peptide, expressed as a percentage of the reference compound” value (α4β2; peptide at 0.2 μM) of the same substance?
A: 86%

Q: What about the “Activity of a4b2 with peptide (percentage of the reference compound)” value (α4β2; peptide at 20 μM) of the same substance?
A: 81%

Q: And the “Activity of Cav2.1 with peptide, expressed as a percentage of the reference compound” value (Cav2.1; peptide at 0.2 μM)?
A: 111%

Q: And the “Activity of Cav2.1 with peptide (percentage of the reference compound)” value (Cav2.1; peptide at 20 μM)?
A: 130%

Q: And the “Activity of Cav2.2 with peptide, expressed as a percentage of the reference compound” value (Cav2.2; peptide at 0.2 μM)?
A: 105%

Q: What about the “Activity of Cav2.2 with peptide (percentage of the reference compound)” value (Cav2.2; peptide at 20 μM) of the same substance?
A: 101%

Q: And the “Activity of Kv2.1 with peptide, expressed as a percentage of the reference compound” value (Kv2.1; peptide at 0.2 μM)?
A: 112%

Q: What about the “Activity of Kv2.1 with peptide (percentage of the reference compound)” value (Kv2.1; peptide at 20 μM) of the same substance?
A: 102%

Q: What about the “Activity of GABA with peptide, expressed as a percentage of the reference compound” value (GABA; peptide at 0.2 μM) of the same substance?
A: 121%

Q: And the “Activity of GABA with peptide (percentage of the reference compound)” value (GABA; peptide at 20 μM)?
A: 108%

Q: What about the “Activity of Nav1.5 with peptide, expressed as a percentage of the reference compound” value (Nav1.5; [1]) of the same substance?
A: 117%

Q: And the “Activity of Nav1.5 with peptide, expressed as a percentage of the reference compound” value (Nav1.5; [2])?
A: 118%

Q: And the “Activity of Nav1.5 with peptide (percentage of the reference compound)” value (Nav1.5; [1])?
A: 98%

Q: And the “Activity of Nav1.5 with peptide (percentage of the reference compound)” value (Nav1.5; [2])?
A: 101%

Q: What about the “Activity of hERG with peptide, expressed as a percentage of the reference compound” value (hERG; peptide at 0.2 μM) of the same substance?
A: 110%

Q: And the “Activity of hERG with peptide (percentage of the reference compound)” value (hERG; peptide at 20 μM)?
A: 80%

Q: And the “Activity of Kir2.1 with peptide, expressed as a percentage of the reference compound” value (Kir2.1; peptide at 0.2 μM)?
A: 109%

Q: What about the “Activity of Kir2.1 with peptide (percentage of the reference compound)” value (Kir2.1; peptide at 20 μM) of the same substance?
A: 90%

Q: And the “Activity of Kv1.1 with peptide, expressed as a percentage of the reference compound” value (Kv1.1; peptide at 0.2 μM)?
A: 106%

Q: What about the “Activity of Kv1.1 with peptide (percentage of the reference compound)” value (Kv1.1; peptide at 20 μM) of the same substance?
A: 91%

Q: What about the “Activity of Kv1.2 with peptide, expressed as a percentage of the reference compound” value (Kv1.2; peptide at 0.2 μM) of the same substance?
A: 90%

Q: And the “Activity of Kv1.2 with peptide (percentage of the reference compound)” value (Kv1.2; peptide at 20 μM)?
A: 45%

Q: And the “Activity of Kv1.3 with peptide, expressed as a percentage of the reference compound” value (Kv1.3; peptide at 0.2 μM)?
A: 109%

Q: What about the “Activity of Kv1.3 with peptide (percentage of the reference compound)” value (Kv1.3; peptide at 20 μM) of the same substance?
A: 87%

Q: And the “Activity of Nav1.7 with peptide, expressed as a percentage of the reference compound” value (Nav1.7; [3])?
A: 95%

Q: What about the “Activity of Nav1.7 with peptide, expressed as a percentage of the reference compound” value (Nav1.7; [4]) of the same substance?
A: 93%

Q: What about the “Activity of Nav1.7 with peptide (percentage of the reference compound)” value (Nav1.7; [3]) of the same substance?
A: 96%

Q: And the “Activity of Nav1.7 with peptide (percentage of the reference compound)” value (Nav1.7; [4])?
A: 104%

Q: And the “Activity of NR2A with peptide, expressed as a percentage of the reference compound” value (NR2A; peptide at 0.2 μM)?
A: 106%

Q: And the “Activity of NR2A with peptide (percentage of the reference compound)” value (NR2A; peptide at 20 μM)?
A: 90%

Q: What about the “Activity of NR2B with peptide, expressed as a percentage of the reference compound” value (NR2B; peptide at 0.2 μM) of the same substance?
A: 117%

Q: And the “Activity of NR2B with peptide (percentage of the reference compound)” value (NR2B; peptide at 20 μM)?
A: 93%

Q: What about the “Activity of TRPA1 with peptide, expressed as a percentage of the reference compound” value (TRPA1; peptide at 0.2 μM) of the same substance?
A: 135%

Q: And the “Activity of TRPA1 with peptide (percentage of the reference compound)” value (TRPA1; peptide at 20 μM)?
A: 119%

Q: What about the “Activity of TRPV1 with peptide, expressed as a percentage of the reference compound” value (TRPV1; peptide at 0.2 μM) of the same substance?
A: 110%

Q: What about the “Activity of TRPV1 with peptide (percentage of the reference compound)” value (TRPV1; peptide at 20 μM) of the same substance?
A: 98%
